According to IntAct's records for PubMed 12730685:

Target: mgn_human MAGOH (UniProt P61326)

effect of a mutation on the interaction: decreasing interaction
Substance: RNA-binding protein 8A (Homo sapiens) (from UniProt Q9Y5S9) L118R
